Results as given in the PETadex activity labels.
Substitutions are numbered along the chain they refer to.

B1: unnamed (protein)
chain: MTHQIVTTQYGKIKGTTENGVHKWKGIPYAKPPVGQWRFKAPEPPEVWEDVLDATAYGPVCPQPSDLLSLSYAELPRQSEDCLYVNVFAPDTPSQNLPVMVWIHGGAFYLGAGSEPLYDGSKLAAQGEVIVVTLNYRLGPFGFLHMSSFDEAYSDNLGLLDQAAALKWVRENISAFGGDPNNVTVFGESAGGMSIAALLAMPAAKGLFQKAIMESGASRTMTKEQAASTAAAFLQVLGINESQMDRLHTVAAEDLLKAADQLRIAEKENIFQLFFQPALDPKTLPAEPEKAIAEGAASGIPLLIGTTRDEGYLFFTPDSDVHSQETLDAALEYLLGKPLAEKAADLYPRSLESQIHMMTDLLFWRPAVAYASAQSHYAPVWMYRFDWHPEKPPYNKAFHALELPFVFGNLDGLERMAKAEVTDEVKQLSHSIQTAWITFAKTGNPSTEAVNWPAYQEETRETLILDSKITIENDPESEKRQKLFPSKGEAALEHHHHHH
B2: unnamed (protein)
chain: MERTVVETRYGRLRGGTNESVFVWKGIPYAKAPVGERRFLPPEPPDAWDGVREAAAFGPVVMQPSDPIFSGLLGRMSEAPSEDGLYLNIWSPAADGKKRPVLFWIHGGAFLFGSGSSPWYDGTAFAKHGDVVVVTINYRMNVFGFLHLGDLFGEAYAQAGNLGILDQVAALRWVKENIEAFGGDPDNITIFGESAGAASVGVLLSLSEASGLFRRAILQSGSGALLLRSPKTAMAMTERILERAGIRPGDRGRLLSIPSEELLRSALSLGPGIMYGPVVDGRVLRRHPIEALCDGAASGIPILIGVTKDEYNLFTLTDPSWTKLGEKELLDRINREVGPVPEAAIRYYAETAEPSAPDWQTWLRIMTYRVFVEGMLRTADAQAAHGADVYMYRFDYETPVFGGQLKACHALELPFVFHNLHQPGVANFVGNRPEREAIANEMHYAWLSFARTGDPNGDHLPEAWPAYTSERKAAFVFSAASHVEDDPFGRERAAWMTRT
B3: unnamed (protein)
chain: MESQVRGGTRWKRFAVVMVPSVAATAAIGVALAQGALAASFSVSGQSFKVTAQELNGTGFSQYGAIDQGYTLSGEKTAHPVAVSVFDTARIQKMCQSVVTPNIPLLGSVSLTLTAGDSADPEKQVNAKNLYIDVEDLGADAEFTNIDIGVAGKDISQGPGMKAGEVQKKQANPYGFAQQAEKAKLTDVKQTAWATTAGTFKLPGLKMKLQTGTHECY
B4: unnamed (protein)
chain: MAKEILVAYGVDIDAVAGWLGSYGGEDSPDDISRGLFAGEVGIPRLLKLFKKYHLPATWFSPGHSIETFSEQMKMIVDAGHEVGAHGYSHENPIAMTAKQEEDVLLKSVELIKDLTGKAPTGYVAPWWEFSNITNELLLKHGFKYDHSLMHNDFTPYYVRVGDSWSKIDYSLEAKDWMKPLIRGVETDLVEIPANWYLDDLPPMMFIKKSPNSFGFVSPHDIGQMWIDQFDWVYREMDYAVFSMTIHPDVSARPQVLLMHEKIIEHINKHEGVRWVTFNEIADDFLKRNPRKK
B5: unnamed (protein)
chain: MNFPRASRLMQAAVLGGLMAVSAAATAQTNPYARGPNPTAASLEASAGPFTVRSFTVSRPSGYGAGTVYYPTNAGGTVGAIAIVPGYTARQSSIKWWGPRLASHGFVVITIDTNSTLDQPSSRSSQQMAALRQVASLNGTSSSPIYGKVDTARMGVMGWSMGGGGSLISAANNPSLKAAAPQAPWDSSTNFSSVTVPTLIFACENDSIAPVNSSALPIYDSMSRNAKQFLEINGGSHSCANSGNSNQALIGKKGVAWMKRFMDNDTRYSTFACENPNSTRVSDFRTANCS
B6: unnamed (protein)
chain: MFGKLPFARASLAVGALLLSAAAVAQTNPYQRGPDPTVSSLEATRGPFSTSSFTVSRPSGYGAGTVYYPTNAGGKVGAIAVVPGYTARQSSINWWGPRLASHGFVVITIDTNSTLDQPSSRSSQQMAALRQVVSLAGTSSSPIYNKVDTARLGVMGWSMGGGGSLISAKNNPSLRAAAPQAPWAQESFSSVTVPTLIVSCENDSIAPNSSHSFPFYNQMTRNKKANLVINGGSHSCANSGNSDAGLIGKYGVAWMKRFMDDDTRYSKFLCGAEHQADLSKRAVEAYKENCPY
B7: unnamed (protein)
chain: MAVMTPRRERSSLLSRALQVTAAAATALVTAVSLAAPAHAANPYERGPNPTDALLEASSGPFSVSEENVSRLSASGFGGGTIYYPRENNTYGAVAISPGYTGTEASIAWLGERIASHGFVVITIDTITTLDQPDSRAEQLNAALNHMINRASSTVRSRIDSSRLAVMGHSMGGGGTLRLASQRPDLKAAIPLTPWHLNKNWSSVTVPTLIIGADLDTIAPVATHAKPFYNSLPSSISKAYLELDGATHFAPNIPNKIIGKYSVAWLKRFVDNDTRYTQFLCPGPRDGLFGEVEEYRSTCPF
B8: unnamed (protein)
chain: MTHQIVTTQYGKIKGTTENGVHKWKGIPYAKPPVGQWRFKAPEPPEVWEDVLDATAYGPVCPQPSDLLSLSYAELPRQSEDCLYVNVFAPDTPSQNLPVMVWIHGGAFYLGAGSEPLYDGSKLAAQGEVIVVTLNYRLGPFGFLHMSSFDEAYSDNLGLLDQAAALKWVRENISAFGGDPNNVTVFGESAGGMSIAALLAMPAAKGLFQKAIMESGASRTMTKEQAASTAAAFLQVLGINESQMDRLHTVAAEDLLKAADQLRIAEKENIFQLFFQPALDPKTLPAEPEKAIAEGAASGIPLLIGTTRDEGYLFFTPDSDVHSQETLDAALEYLLGKPLAEKAADLYPRSLESQIHMMTDLLFWRPAVAYASAQSHYAPVWMYRFDWHPEKPPYNKAFHALELPFVFGNAEVTDEVKQLSHSIQTAWITFAKTGNPSTEAVNWPAYQEETRETLILDSKITIENDPESEKRQKLFPSKGEAALEHHHHHH
B9: unnamed (protein)
chain: MFNQIGKKSALSLMAAGSLMFSATALAIGGGGSGGGNNGGGGGCEADCGYERGPDPSVSLLEASTGPFSVRTSNVSSSVRGFGGGTIHYPTNTTGTMAAIVVIPGFVSPESSIAWWGPKLASHGFVVMTIGTNSGFDQPASRASQLNNALDYLIEQNGSSRSPINGMIDTDRLGVMGWSMGGGGTLRVATEGRVSAAIPLAPWDSSSSQFRSIDTPTLIFACENDSTAPVRSHADPFYDAIPDSTAKAFVELDGGGHTCANGSSGFGGSYNDVLSRLGVSWMKLHLDKDQRYNQFVCGPNHESDRSISEYRGTCPY
B10: unnamed (protein)
chain: MKEGKHFVLVHGACHGGWSWYKLKPLLEAAGHKVTALDLAASGTDLRKIEELRTLYDYTLPLMELMESLSADEKVILVGHSLGGMNLGLAMEKYPQKIYAAVFLAAFMPDSVHNSSFVLEQYNERTPAENWLDTQFLPYGSPEEPLTSMFFGPKFLAHKLYQLCSPEDLALASSLVRPSSLFMEDLSKAKYFTDERFGSVKRVYIVCTEDKGIPEEFQRWQIDNIGVTEAIEIKGADHMAMLCEPQKLCASLLEIAHKYN
B11: unnamed (protein)
chain: B10 chain with G12T
B12: unnamed (protein)
chain: B10 chain with G12T, M239K

substrate: BHET; settings: pH 7.5; 30 °C

Protein | Km [µM] | kcat [s⁻¹] | kcat/Km [M⁻¹ s⁻¹]
B1 | 100 | 37.7 | 377000
B8 | 80 | 102 | 1.28e+06

substrate: p-NP-C12; settings: pH 7.4; 60 °C

Protein | Km [µM] | kcat [s⁻¹] | kcat/Km [M⁻¹ s⁻¹]
B2 | 22800 | 0.993 | 43.7

same assay, conditions: pH 7; 37 °C

Protein | Km [µM] | kcat [s⁻¹] | kcat/Km [M⁻¹ s⁻¹]
B3 | 4300 | 1.4 | 326

substrate: p-NP-C14; settings: pH 7; 37 °C

Protein | Km [µM] | kcat [s⁻¹] | kcat/Km [M⁻¹ s⁻¹]
B3 | 1100 | 4.5 | 4090

substrate: p-NP-C16; settings: pH 7; 37 °C

Protein | Km [µM] | kcat [s⁻¹] | kcat/Km [M⁻¹ s⁻¹]
B3 | 2100 | 2.9 | 1380

substrate: p-NP-C2; settings: pH 6; 30 °C

Protein | Km [µM] | kcat [s⁻¹] | kcat/Km [M⁻¹ s⁻¹]
B4 | 180 | 20.2 | 112000

same assay, conditions: pH 7; 30 °C; part of the chain shown

Protein | Km [µM] | kcat [s⁻¹] | kcat/Km [M⁻¹ s⁻¹]
B5 | 4600 | 27 | 5870

substrate: BHET; settings: 48.5 °C

Protein | kcat [s⁻¹]
B6 | 28.5

same assay, conditions: pH 8.5; 60 °C

Protein | Km [µM] | kcat [s⁻¹] | kcat/Km [M⁻¹ s⁻¹]
B7 | 39700 | 26.8 | 674

substrate: MHET; settings: pH 8.5; 60 °C

Protein | Km [µM] | kcat [s⁻¹] | kcat/Km [M⁻¹ s⁻¹]
B7 | 7330 | 0.31 | 42.3

substrate: p-NP-C4; settings: pH 8; 20 °C

Protein | Km [µM] | kcat [s⁻¹] | kcat/Km [M⁻¹ s⁻¹]
B7 | 312 | 304 | 973000

same assay, conditions: pH 8; 60 °C

Protein | Km [µM] | kcat [s⁻¹] | kcat/Km [M⁻¹ s⁻¹]
B7 | 505 | 742 | 1.47e+06

substrate: p-NP-C2; settings: 20 °C

Protein | Km [µM] | kcat [s⁻¹] | kcat/Km [M⁻¹ s⁻¹]
B9 | 2100 | 4.74 | 2260

same assay, conditions: pH 7.2; 25 °C

Protein | Km [µM] | kcat [s⁻¹] | kcat/Km [M⁻¹ s⁻¹]
B10 | 1400 | 2 | 1430
B11 | 8700 | 0.0283 | 3.26
B12 | 7600 | 0.025 | 3.29
